We go through 3 molecules from paper PMC5147500 (Cell, 2016).

Non-standard residues stand in square brackets, D forms with d. No end group written: not given here. SeMet = C[Se]CC[C@H](N)C(=O)O

One test concerns the target full-length human SNX3 (human, UniProt O60493-1 1-162). The test is described as follows: crystal structure.
Test [1] concerns the target VPS26A residues 1–317, the VPS26 part of the fusion VPS26(1–317)-DMT1(545–568) (human, UniProt O75436-1 1-317). Kind of test: crystal structure.

In the case of {VPS26(1–321)}-TAQPELYLLNT[SeMet] (peptide, UniProt P49281 549-560, looked up) [DMT1-II recycling signal residues 549–560, the DMT1 part of the fusion VPS26(1–321)-DMT1(549–560)], in the test with full-length human SNX3, the binding result is “binds”.

With {VPS26(1–321)}-TAQPELYL[SeMet]NT[SeMet] (peptide, UniProt P49281 549-560, looked up), in the test with full-length human SNX3, the binding result is “binds”. As to {VPS26(1–317)}-HLGLTAQPELYLLNTMDADSLVSR (peptide, UniProt P49281 545-568, looked up) [DMT1-II recycling signal residues 545–568, the DMT1 part of the fusion VPS26(1–317)-DMT1(545–568)], the binding result in test [1] is recorded as “binds”.
